Data as given in paper doi:10.1101/2025.08.04.668567 (bioRxiv, 2025).

Biological target: the molecule itself
Test: cryo-EM structure

B1: Rice OsPHT1;11 (OsPT11) (natural protein)
chain: MADADGGSNLAVLDALDSARTQMYHMKAIVIAGMGFFTDAYDLFCISTVSKLLGRLYYQPDGSTDSKPGALSKTANNMVIGVALVGTLMGQLVFGYFGDKLGRKRVYGVTLILMAACAIGSGLSFGSSRKAVIGTLCFFRFWLGFGIGGDYPLSATIMSEYSNKKTRGAFIAAVFAMQGVGIIFAGLVSMIVSSIFLTYNKAPSYKGNHDLSRQMPAADYVWRIVLMIGAFPALATFYWRMKMPETARYTAIIDGNAKQAANDMQKVLSIEIEAEQEKLAKFNAANNYPLLSMEFARRHGLHLIGTTTTWFLLDIAFYSQNLTQKDIFPAMGLISGAAEVNALTEMFQISKASFLVALLGTFPGYWVTVALIDKMGRYMIQLIGFFMMSMFMLAMGILYDYLKTHHFLFGLLYALTFFFANFGPNSTTFVLPAELFPTRVRSTCHAISAAAGKAGAIVAAFGIQKLTYNSQVKSIKKALIILSITNMLGFFFTFLVPETMGRSLEEISGEDGNTGAGGGGAPAAANAGVGVSASDVSRDEKFPASSTEWQTSMHA
stoichiometry N: 2
